Results reported in article PMC10978839.

How the values were obtained:
[1] = non-reducing vs reducing western blot; conditions: glycan lost; control: SEMA7A-WT
[2] = CHX plus MG132/HCQ/BTZ, immunoblot; degradation pathway; conditions: glycan lost; control: SEMA7A-WT
[3] = ELISA of secreted SEMA7A; conditions: glycan lost; control: SEMA7A-WT
[4] = real-time PCR of PD-L1 isoforms; conditions: glycan lost; control: SEMA7A-WT cells
[5] = coculture, Annexin V/PI flow cytometry; conditions: glycan lost; control: SEMA7A-WT tumor cells
[6] = confocal colocalisation with calreticulin/GM130; membrane trafficking; conditions: glycan lost; control: SEMA7A-WT
[7] = CHX chase immunoblot, turnover rate; conditions: glycan lost; control: SEMA7A-WT
[8] = CRT expression and nuclear HMGB1 with doxorubicin; conditions: glycan lost; control: SEMA7A-WT cells
[9] = cleaved Caspase-3 and proliferation; conditions: glycan lost; control: SEMA7A-WT cells
[10] = flow cytometry of PD-1, LAG3, CTLA4, TIM3; conditions: glycan lost; control: SEMA7A-WT tumor cells
[11] = IL-2 ELISA after coculture; conditions: glycan lost; control: SEMA7A-WT tumor cells
[12] = cell viability; conditions: glycan lost; control: SEMA7A-WT cells

B1: SEMA7A: 5NQ (protein)
parent chain: MTPPPPGRAAPSAPRARVPGPPARLGLPLRLRLLLLLWAAAASAQGHLRSGPRIFAVWKGHVGQDRVDFGQTEPHTVLFHEPGSSSVWVGGRGKVYLFDFPEGKNASVRTVNIGSTKGSCLDKRDCENYITLLERRSEGLLACGTNARHPSCWNLVNGTVVPLGEMRGYAPFSPDENSLVLFEGDEVYSTIRKQEYNGKIPRFRRIRGESELYTSDTVMQNPQFIKATIVHQDQAYDDKIYYFFREDNPDKNPEAPLNVSRVAQLCRGDQGGESSLSVSKWNTFLKAMLVCSDAATNKNFNRLQDVFLLPDPSGQWRDTRVYGVFSNPWNYSAVCVYSLGDIDKVFRTSSLKGYHSSLPNPRPGKCLPDQQPIPTETFQVADRHPEVAQRVEPMGPLKTPLFHSKYHYQKVAVHRMQASHGETFHVLYLTTDRGTIHKVVEPGEQEHSFAFNIMEIQPFRRAAAIQTMSLDAERRKLYVSSQWEVSQVPLDLCEVYGGGCHGCLMSRDPYCGWDQGRCISIYSSERSVLQSINPAEPHKECPNPKPDKAPLQKVSLAPNSRYYLSCPMESRHATYSWRHKENVEQSCEPGHQSPNCILFIENLTAQQYGHYFCEAQEGSYFREAQHWQLLPEDGIMAEHLLGHACALAASLWLGVLPTLTLGLLVH
[1]
  oligomerisation: abolishes
[2]
  degradation_or_half_life: changes
[3]
  expression_or_secretion: no change
[4]
  other: PD-L1 alternative splicing: changes
[5]
  other: susceptibility to CD8+ T-cell killing: increases
[6]
  localisation_or_trafficking: decreases
[7]
  degradation_or_half_life: increases
[8]
  other: immunogenic cell death markers: increases
[9]
  other: sensitivity to EGFR inhibitors: increases
[10]
  other: exhaustion of cocultured CD8+ T cells: decreases
[11]
  other: IL-2 release by cocultured Jurkat cells: increases
[12]
  other: sensitivity to doxorubicin: increases
